Patent US20100216969A1 (BIONANOPHOTNICS A S, published 2010)
Bridge positions count the residues as written; N and C are the ends. Ends that are not written are not given here.

Target: T1, Lysozyme (Sigma L-7651) (UniProt P00698 19-147)
T1 construct: Used as 2 uM solution in 25 mM Tris pH 7.0; also called model protein
Assay: TIRF flow chamber, tryptophan fluorescence (excitation 295 nm, emission 350 nm); lysozyme loaded over the peptide-coated quartz slide with the light off, then Tween20/PBS and buffer rinses
Excerpt: A TIRF system (BioElectroSpec, Inc., Harrisburg, Pa.) coupled with a fluorescence spectrophotometer (PTI QM-2000 from Photon Technology Int., Lawrenceville, N.J.) with a 75W Xenon arc source was used. The PTI instrument excitation and emission slits were set at 6 nm. The flow chamber was comprised by a “sandwich” consisting of a TIRF quartz prism, a TIRF quartz slide (with the sample surface), a 10 μm polyureathane gasket (comprising the chamber thickness), and a back block with holes to channel the solution through the flow chamber. In this setup, the excitation light travels through the prism and slide, hits the interface between slide and solution, leading to total internal reflection at the interface. The reflected beam generates an evanescent electromagnetic field in the centre of the TIRF slide—this area of the TIRF slide serves thus as the sensor surface. Only fluorophores that are present at the surface and in close proximity of the surface (within the evanescent field) are excited and fluoresce.

T1 sequence (P00698 19-147 limits assumed): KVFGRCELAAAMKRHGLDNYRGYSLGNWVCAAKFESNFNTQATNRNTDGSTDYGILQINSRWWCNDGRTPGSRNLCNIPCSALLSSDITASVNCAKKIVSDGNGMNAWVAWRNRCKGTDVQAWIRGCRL

binding result: no binding (tested: 2 µM)
B1: synthetic disulphide-peptide KAMHAWGCGGGC-NH2 (SEQ ID NO 9) (peptide)
peptide: KAMHAWGCGGGC-NH2
modifications: disulfide 8-12; also: attached to aldehyde quartz surface via lysine amine and/or N-terminal amine (Schiff bond)
notes: Loaded at 10 uM onto an aldehyde-coated TIRF quartz slide; It stood in the assay as the surface coating; also called peptide linker
